Results on two molecules are retold here after article PMC3690481, “OTULIN Antagonizes LUBAC Signaling by Specifically Hydrolyzing Met1-Linked Polyubiquitin” (Cell, 2013).

For the experiment, the target named is T1, FlAsH-tagged Met1-diUb (UniProt P0CG48 1-76; P0CG48 1-71, Lumio Green (FlAsH) on the C-terminal WCCPGCC motif).
T1 construct: ubiquitin, distal moiety, residues 1-76, joined by Gly76 in a peptide bond to Met1 of the proximal moiety; ubiquitin, proximal moiety; a C-terminal WCCPGCC motif replaces aa 72-76, so that residues 1-71 are left; Construct described in Ye et al., 2011; Chain: Ub(1-76)-Ub(1-71)-WCCPGCC; also called FlAsH-tagged Met1-diUb WT; Met1-linked diUb; source: expressed from pET17 plasmid, purified as …
Kind of experiment: fluorescence polarisation; FlAsH-tagged diUb fixed (10 μl of 100 nM plus 10 μl protein), OTULIN C129A variants serially diluted; 20 mM Tris pH 7.4, 100 mM NaCl, 5 mM β-mercaptoethanol, 0.1 mg/ml BSA; one-site binding model; triplicate. To be noted: both partners purified. On the technique in general: Fluorescence polarisation rises when a labelled molecule tumbles more slowly, as on binding a larger partner.

B1: OTULINcat C129A (aa 80–352) (domain or fragment, human, UniProt Q96BN8 80-352, looked up)
chain: LSVAPEMDIMDYCKKEWRGNTQKATCMKMGYEEVSQKFTSIRRVRGDNYAALRATLFQAMSQAVGLPPWLQDPELMLLPEKLISKYNWIKQWKLGLKFDGKNEDLVDKIKESLTLLRKKWAGLAEMRTAEARQIACDELFTNEAEEYSLYEAVKFLMLNRAIELYNDKEKGKEVPFFSVLLFARDTSNDPGQLLRNHLNQVGHTGGLEQVEMFLLAYAVRHTIQVYRLSKYNTEEFITVYPTDPPKDWPVVTLIAEDDRHYNIPVRVCEETSL
notes: FAM105B/OTULIN, human, catalytic OTU domain aa 80-352, catalytic Cys129 changed to Ala; Expressed from pOPIN-F. PDB 3ZNV is the wild-type parent of the same limits; also called OTULIN (80–352) C129A; OTULIN 80-352 C129A; source: E. coli Rosetta2 (DE3) pLacI, purified (Ni2+ resin, 3C protease, anion exchange, SEC)
Regarding B1, the Kd – broadly, a measure of binding affinity in units of concentration – was 196 nM.

B2: OTULIN C129A TQK100-102AAA (enzyme, human, UniProt Q96BN8 1-352, looked up)
chain: MSRGTMPQPEAWPGASCAETPAREAAATARDGGKAAASGQPRPEMQCPAEHEEDMYRAADEIEKEKELLIHERGASEPRLSVAPEMDIMDYCKKEWRGNAAAATCMKMGYEEVSQKFTSIRRVRGDNYAALRATLFQAMSQAVGLPPWLQDPELMLLPEKLISKYNWIKQWKLGLKFDGKNEDLVDKIKESLTLLRKKWAGLAEMRTAEARQIACDELFTNEAEEYSLYEAVKFLMLNRAIELYNDKEKGKEVPFFSVLLFARDTSNDPGQLLRNHLNQVGHTGGLEQVEMFLLAYAVRHTIQVYRLSKYNTEEFITVYPTDPPKDWPVVTLIAEDDRHYNIPVRVCEETSL
notes: also called triple mutant TQK100-102 to AAA; source: E. coli Rosetta2 (DE3) pLacI, purified (Ni2+ resin, 3C protease, SEC)
B2: the binding result is recorded as “binds”.
